Publication PMC8752864 (Nature Communications, 2022)
Like-named read-outs stand apart in the source and are kept apart here.

Columns and labels:
[1] = biological target: T1, RNA polymerase of influenza A/Brevig Mission/1/1918 (H1N1) virus, heterotrimer of PA, PB1 and PB2 (influenza A/Brevig Mission/1/1918 …, UniProt Q3HM39;Q3HM40;Q3HM41); assay: cryo-EM structure; settings: both partners purified
T1 construct: also called 1918 polymerase; 1918 pandemic influenza virus polymerase; copies: + +

[2] = biological target: T2, polymerase acidic (PA) subunit of influenza A/Brevig Mission/1/1918 (H1N1) virus (influenza A/Brevig Mission/1/1918 …, UniProt Q3HM39); assay: cryo-EM structure; settings: both partners purified
T2 construct: the PA chain of m1

[3] = biological target: T3, PB2 cap-mid-link construct (cap-binding and mid-link domains) from influenza A/duck/Fujian/01/2002 (H5N1) (Influenza A virus …)
[4] = biological target: T3, PB2 cap-mid-link construct (cap-binding …); assay: SEC; settings: both partners purified

Row | Binder | binding result [1] | also measured
1 | Nb8192 (VHH, source: E. coli WK6, periplasm, purified (Ni-NTA)) VHH: QVQLQESGGGLVQAGASLRLSCAASGRTFMGWFRQAPGQEREFVAAIDAFGINTYYADSAKGRFTISRDSAKNTVYLQMNSLKPEDTAVYYCAATLRGTQPGAVMQWRPDYWGQGTQVTVSS | binds | 
2 | Nb8190 (VHH, source: E. coli WK6, periplasm, purified (Ni-NTA)) VHH: QVQLQESGGGLVQAGGSLRLSCAASGRSLSDYTMGWFRQAPGKEREFVTAITSDGVYANYADSVKGRFTISRDNAKNTAYLQMNSLKPEDTAVYYCAGKTRRSMLMTTGYDYWGQGTQVTVSS | binds | 
3 | Nb8198 (VHH, source: E. coli WK6, periplasm, purified (Ni-NTA)) VHH: QVQLQESGGGLVQTGDSLRLSCAGAERSFNSYTMGWFRQAPGKEREFVAAIAFSGGFTYYAEAVKGRFTISRDSGKNTVYLQMNSLKPEDTAVYYCAARFYGGGYYYQQREYSFWGQGTQVTVSS | binds | 
4 | Nb8200 (VHH, source: E. coli WK6, periplasm, purified (Ni-NTA)) VHH: QVQLQESGGGLVQAGDSLRLSCAASGRTFSGYIMAWFRQTPGKERELVARLGPSSSIQYYRDSVKGRFTLSRDNAKNTLYLQMNSLKPEDTAVYYCAFTLKWSSDYRSHNAYDYWGQGTQVTVSS | binds | 
5 | Nb8205 (VHH) QVQLQESGGGMVQPGGSLRLSCLASGFTFSNYAMTWVRQAPGKGPEWVSMVSNNGADTTYTDSVKGRFTISRDNAKNTLYLRMNNVKPEDSAVYYCAKRRYGGIWTGQPTDYDYLGQGTVTVSS | binds | 
6 | polymerase basic 2 (PB2) subunit of influenza A/Brevig Mission/1/1918 (H1N1) virus (natural protein, the PB2 chain of m1) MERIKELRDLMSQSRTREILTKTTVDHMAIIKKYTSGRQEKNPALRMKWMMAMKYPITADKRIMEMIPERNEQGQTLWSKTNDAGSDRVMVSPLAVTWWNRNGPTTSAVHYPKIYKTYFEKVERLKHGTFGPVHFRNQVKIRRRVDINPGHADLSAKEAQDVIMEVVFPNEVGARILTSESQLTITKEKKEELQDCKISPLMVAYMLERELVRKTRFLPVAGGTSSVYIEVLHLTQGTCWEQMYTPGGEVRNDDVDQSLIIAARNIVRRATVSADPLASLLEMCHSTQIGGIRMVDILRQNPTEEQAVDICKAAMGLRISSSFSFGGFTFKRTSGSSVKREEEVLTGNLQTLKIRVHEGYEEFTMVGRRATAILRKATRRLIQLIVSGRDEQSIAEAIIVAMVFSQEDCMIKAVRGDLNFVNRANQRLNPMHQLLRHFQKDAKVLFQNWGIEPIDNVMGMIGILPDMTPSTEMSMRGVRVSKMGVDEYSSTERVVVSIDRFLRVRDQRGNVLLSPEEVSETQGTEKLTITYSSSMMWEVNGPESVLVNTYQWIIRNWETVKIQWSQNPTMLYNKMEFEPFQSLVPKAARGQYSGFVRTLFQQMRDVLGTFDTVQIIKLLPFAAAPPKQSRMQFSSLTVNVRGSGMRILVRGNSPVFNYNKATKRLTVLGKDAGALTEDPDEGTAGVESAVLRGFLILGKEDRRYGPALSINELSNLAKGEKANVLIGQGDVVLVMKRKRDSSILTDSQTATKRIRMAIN |  | binding result [2]: binds
7 | Nb8197 (VHH) VHH: QVQLQESGGGLVQPGGSLRLSCAASGFTFSSYAMSWVRQAPGKGLEWVSSITSAFGRTSYVSSVKGRFTISRDNAKNTLYLQMNSLKPEDTAVYYCAQGASWPYRYRGQGTQVTVSS |  | binding result [3]: binds
8 | Nb8194 (VHH, source: E. coli WK6, periplasm, purified (Ni-NTA)) VHH: QVQLQESGGGLVQPGGSLRLSCAASGFTFSNYYMSWVRQAPGEGREWVSSINRDGSNTYYADSVKGRFTIARDNVKNTLYLLMDSLKSDDTAVYYCTKGSNWPYDNWGQGTQVTVSS |  | binding result [4]: binds
9 | Nb8203 (VHH) VHH: QVQLQESGGGLVQAGGSLRLSCAAPGRILTLSRYVMGWFRQAPGKEREFVAAISPGTTDTDYADSVKGRFTISRDNAKNTVYLEMSSLKPEDTAVYVCAAGAASSGTVYRVYGLYNYRGQGTQVTVSS | binds | 
10 | Nb8204 (VHH, source: E. coli WK6, periplasm, purified (Ni-NTA)) VHH: QVQLQESGGGLVQPRGSLRLSCAASGSIAIIYTMGWYRQAPLKERELVATVTYGGNTNYADPVKGRFTISRDNNKNTEYLQMSSLQPEDTAVYYCYMRVRSTAWDTDDYWGQGTQVTVSS | binds | 
11 | Nb8202 (VHH, source: E. coli WK6, periplasm, purified (Ni-NTA)) VHH: QVQLQESGGGLVQAGESLRLSCAASGGTFIYYGMGWFRQAPGKEREFVASISQTGGDIYAMDFVKGRFTISRDNSKNTLYLQMNSLKPEDTAVYYCAAATSPYASRKLYEYKYWGQGTQVTVSS | binds | 
12 | Nb8210 (VHH, source: E. coli WK6, periplasm, purified (Ni-NTA)) VHH: QVQLQESGGGLVQAGESLRLSCAASGGTLIYYGMGWFRQAPGKEREFVASISQAGGDIYAMDFVKGRFTISRDNSKNTLYLQLNTLKPEDTAVYYCAAATSPYASRKLYDYKYWGQGTQVTVSS | binds | 
13 | Nb8199 (VHH, source: E. coli WK6, periplasm, purified (Ni-NTA)) VHH: QVQLQESGGGLVQAGGSLRLSCAASGRTFSSYAMGWFRQAPGKEREFVGAIDLSGLYKHYGDSVKGRFTISRDNAKNTVYLQMSSLKPEDTAVYYCAAAGIYYAGSYSPLLYDYWGQGTQVTVSS | binds | 
14 | Nb8201 (VHH, source: E. coli WK6, periplasm, purified (Ni-NTA)) VHH: QVQLQESGGGLVQPGGSLRLSCAASGSDFSLYAMGWYRQVPGKERELVATITIGGTTNFADSARGRFTISRGNAKNTVYLQMNNLKPEDTAVYYCWSRGSYGRYLETWGQGTQVTVSS | binds | 
15 | Nb8189 (VHH, source: E. coli WK6, periplasm, purified (Ni-NTA)) VHH: QVQLQESGGGLVQPGGSLRLSCAASGSDFSLYAMGWYRQVPGKERELVATITSGGTTNFADSARGRFTISRGNAKNTVYLQMNNLKPEDTAVYYCWSRGSYGRYLETWGQGTQVTVSS | binds | 
16 | Nb8196 (VHH, source: E. coli WK6, periplasm, purified (Ni-NTA)) VHH: QVQLQESGGGLVQAGDSLRLSCTTSGSSLSRYGVGWFRQAPGEEREFGASISWNGATYYADSVKGRFTISRDNAKNTVYLQMNSLKAEDTAVYYCAARSDGYLTPYLSPVYWGQGTQVTVSS | binds | 
17 | Nb8206 (VHH, source: E. coli WK6, periplasm, purified (Ni-NTA)) VHH: QVQLQESGGGLVQPGGSLRLSCTASGGIFGISAMGWYRQAPGKERELVARITRSGSTNFADSVKDRFTISRDATENTVVLQMNSLKAEDTAVYYCNGQFWEVDNGNIDLWGQGTQVTVSS | binds | 
18 | Nb8209 (VHH, source: E. coli WK6, periplasm, purified (Ni-NTA)) VHH: QVQLQESGGGLVQPGGSLRLSCAASGNIRSINTMSWYRQAPGKERELVASDSTGGSTGGSTVYAASVKGRFTISRDNAKNTVYLQMNMLKPEDTAVYYCYVYGMSRFGSTISTLFGQGTQVTVSS | binds | 
19 | Nb8193 (VHH, source: E. coli WK6, periplasm, purified (Ni-NTA)) VHH: QVQLQESGGGLVQPGGSLRLSCAASGFTFKMYAMSWVRQAPGKGLEWVSSINSAGGSTSYVDSVKGRFTISRDNAKNTLYLQMNSLKPDDTAVYYCVQGRNWPYDYRGQGTQVTVSS |  | binding result [4]: binds
20 | Nb8191 (VHH, source: E. coli WK6, periplasm, purified (Ni-NTA)) VHH: QVQLQESGGGLVQPGGSLRLSCTASESVASINIVGWYRQISGKERELVARISSGGTITDYSDSVKGRFTITRDNTKNTVYLQMNSLKRGDTAVYYCNAEYQYGSDWFHIWGQGTQVTVSS | binds | 
21 | Nb8208 (VHH, source: E. coli WK6, periplasm, purified (Ni-NTA)) VHH: QVQLQESGGGLVQPGGSLRLSCAASGRTFSMYAMAWFRQAPGKQREFVGTISRSGDYALHADAVKGRFTISRDNAKNTVYLQMNSLKLEDTAVYYCAAGAYHSKDKTLYDYWGQGTQVTVSS |  | binding result [4]: binds
22 | Nb8207 (VHH, source: E. coli WK6, periplasm, purified (Ni-NTA)) VHH: QVQLQESGGGLVQAGASLRLSCTASGRTSSTYPMGWFRQGPGKEREFVAAISWAGSSTYYGDFVKGRFTISRDNAKNTVYLQMNSLKPEDTAVYYCARAARPYAYGLDYSTEASYDYWGQGTQVTVSS | binds | 
